For 13 sequences, protein production results are on record in a protein production outcome set (Wang et al. 2014).

This data set in a line: label from the status in PepcDB records.
As for “MIFVIFAKKSVRFPGKHSAMINGRRMIDIVASKLKNHGEVILYSKDPELNCDMCRVVRDTTDGIITDSVLSAMDRFGTFFAVAGDMPFITDRIIEKILSSYDGKPTFPVHADGLIEPLFGIYTDAIYDAMRDYIESGGESLIGFLSMADIDRVPIAEEEEKFFVSVNYPEDIKKYADLLTLEHHHHHH”, the protein production result is recorded as “failed”.

Consider “MIFVPIIGWLALFGYGVRLVNEFIEGRYEGPIKLDFMEDLKFGFMVFLKSLPFYIIYIIILFAAMYVSEGLGNIISLLLGFFVVPMLAVNFFRKQTVESFFEFSVLNVVRDNLGEYIITVLKQYALVIIFMVLSIVLVGIPGMLFTNSIFVANMYGRLVERKAEASL”, for which the protein production result is listed as “failed”.

Take “MIFWRLLQEFASTTIHGTKGICHADELIEKGQIDKAEQAVLTLLERKPNDANILHLAGVVALRKGQNSRAVALISKALEYAPNESLYYFNLGNAYLADGAIDLGIQALQDATRLDPERMEAWMNLGLALVEAKRHPEAVAAFERLLEIDPDHEADVAFASALVGAGIMLKESAMVDRGISVLESKLRDGYERYAAGVILARALEHRNRLSEAIRQHQALLEANPEHIGIRNNLARCLVQLGRVEEARTHYRLCVKSAPDKYHAFSALLAGLNYEPNLTAAMHEAEVRNWEKQLALPHYPVEPEFPNERDPERPLKIGYLSPDLRQHVVGHNFLPVLEHRNREQFSVFCYHIGEKQDDMSRRIAALADHWRHVHGASDDEVAALIREDRVDILVDLSGHTSHTQPLVFARKPAPVQVSWLGYFDTTGLATMDWFITDPYSSPPDQKQYFSERLYRMPHTRLYYHPYPDMPAVGQLPAKRNGYITFGCLNNLAKINTEVLDLWAQILAASPTSRLLIQTVALCDRLNLERFRALCVERGLDPARLELRPATSLEKFAQTYHQIDIALDPFPFCGGFTSFDALWMGVPVITLEQQRLAGRQTLSMLMNLGLPHLIASNKTDYVSIALELSRDSSEIEQLRSELRSRFLQSPLIDHCRFTRELEKAYRFFWSHWCTEKKQSSARKGISAPMDAYPSRRQISAT”: the protein production result is listed as “failed”.

Consider “MIGAVIEAGVGITAALISLIEDKQNFLKKYEVSLIILPILVIFFHSMLIVPIYVFSIISGTYLYSKKFYYPFLLLFVSVFLIYIVYGINYPWKSTDIAISAGMIVVMVFDSREKEYVKQNEMNRGTDRKKEIRRDYVQILAGAVIILLIYYYGIDVSRILVTFGSLVLYVTGNFLAGRPDLLLGKLLNSLERSSTKLGIGSLWFASGILIAYSLHDSTAVVMMIVFSIAVGDSLATIIGTSVSSPKLPINRKKSAAGSIAFFAASAAFAIFVLGYAGLFYAAVATITEAVSGFPLDDNLTVPFILSILAYVSKML”, for which the protein production entry is listed as “failed”.

On to “MIGITGVTGKLGSKVAQLISEQGISARHLARNPQRAALYDNAELVQVAFENSLEAVEALKGIDVLLMVSASESPNRLQQHFAFLDAAHEAGVKHIVYTSFYNAATEATFTLARDHAKTEKYIKERGFTYTFLRDNFYLDFFLDLCLNNGEIRGPAGNGKVSAVARQDVSEVATTILAKPDKWKNQLLNMTGPADLSMADIVHFVSEQKGEIIPYIDESIEEAYASRKAWPAQDWEYDAWVSTYTAIKEGKQAGVSSDIERVLGRPATSLEQLVKTIK”, for which the protein production result is on record as “failed”.

“MIGITQAEAVLTIELQRPERRNALNSQLVEELTQAIRKAGDGSARAIVLTGQGTAFCAGADLSGDAFAADYPDRLIELHKAMDASPMPVVGAINGPAIGAGLQLAMQCDLRVVAPDAFFQFPTSKYGLALDNWSIRRLSSLVGHGRARAMLLSAEKLTAEIALHTGMANRIGTLADAQAWAAEIARLAPLAIQHAKRVLNDDGAIEEAWPAHKELFDKAWGSQDVIEAQVARMEKRPPKFQGA”: the protein production result was “not failed”.

Consider “MIGKPRGRRGVNLQILPSAMTVLSICAGLTAIKFALEHQPKAAMALIAAAAILDGLDGRVARILDAQSRMGAEIDSLADAVNFGVTPALVLYVSMLSKWPVGWVVVLLYAVCVVLRLARYNALQDDGTQPAYAHEFFVGMPAPAGAVSMIGLLALKMQFGEGWWTSGWFLSFWVTGTSILLVSGIPMKKMHAVSVPPNYAAALLAVLAICAAAAVLAPYLLIWVIIIAYMCHIPFAVRSQRWLAQHPEVWDDKPKQRRAVRRASRRAHPYRPSMARLGLRKPGRRL”, for which the protein production result is on record as “failed”.

Take “MIGNPVIQVPSSLMPSSSMIACPRVSPNGVPYLPPKPRTRHLVVRAASNSDAAHGQPSSDGGKNPLTVVLDVPRNIWRQTLKPLSDFGFGKRSIWEGGVGLFIVSGATLLALSWAWLRGFQMRSKFRKYQTVFELSHASGICTGTPVRIRGVTVGTIIRVNPSLKNIEAVAEIEDDKIIIPRNSLVEVNQSGLLMETMIDIMPRNPIPEPSVGPLHPECGKEGLIVCDRQTIKGVQGVSLDELVGIFTRIGREVEAIGVANTYSLAERAASVIEEARPLLKKIQAMAEDAQPLLSEFRDSGLLKEVECLTRSLTQASDDLRKVNSSIMTPENTELIQKSIYTLVYTLKNVESISSDILGFTGDEATRKNLKLLIKSLSRLL”: the protein production result is “failed”.

Regarding “MIGRHHPILAWAAVVAIGGGVIVLGGIGLPGAGDWLSDWTRAITSRQAGFHRELGQAVRDLAGEGGGAAGVGLLIASLGYGVFHALGPGHGKAVIGAYAATTATGFRRAALLSLAAALIQATTAVVLVDGAFLVMRGGAHWANRTAERWLEPASYAAILGLGLYLGGRGLLAIVRAGRPSPGGDHRPTHPGQARDEEACAHCGHAHGPTADQVAKATEWRSAAMIALAVGIRPCSGAILVLVVANGLGLWAAGILAAYVMALGTAATVALLAVGARASRLPIAGLARRLPLSPALLGGLAGTLAGLILVVLAGLLLRASLLAPVHPLLG”, the protein production result is given as “failed”.

As to “MIGSTSDGLVPGNTDMPATPTTALTALRTPHPPTGGESMHPRTRTAPALLFAVCLTALAAYPAAADDPVPTTERVSVTLDGAQIDDPSYRPQLTSKGGVVYTSDGPVWSTDHNGVSDAYRNSERVSYNMGAARSYDPSACHTARMIAFVSDRTPAGGTTPSVYVRNTPVGKLSYASHGYQGVPFTWAGQPAMSADCQWMAFSATLPATPDHVEQPRVYRYRIYDGTIEQVSPDSADGSRAAVRPSISADGRYVAYQSSIPHPGGPANDSDIYVRDLETGTLEKASVGRHGRPADRASTGPSLSADGRHVAFDSYASNLAPGDTNGTVNVFVRDLDAGTTRLVKGAGRHAYTAEAALSGDGLHLAYVSAGIRGSRGVPAVYLRDLATGRTRLISVDTRGHRNDRAAGNPSVNPDGTAVAFDSASPDLVPGDTNGTVDVFLRRLGSPEALEHHHHHH”, the protein production entry is “not failed”.

As for “MIIFFLLIIIFLITALLFLLIKELHLSTASNYIMTIFLSLIILFIILKPEVCISASISGAKLFFFSVFPYVFPFLIITNLIICYDGIEIYSKLLGPILCLPQRLPKKASIVLMVSFLCGYPLGAKYAADLYENDIISFSTFERLVNIASNPGPLFIIGAVGTSMLKNKYLGYILLISCYLSCIAMGIILPNKKDDFSTKKTKWNVSEKHSIGTALKTSTENAVKVILQVMSFIIIFSVIIGILKQSVIFKNSEASFIKTFILGIVEMTNGSSMLSSSSFPIELKVITISFLSSFGGLCVIAQIYSFIGKYKISYLKFISLKVIQGVISSIICFLLFKFLYVNNTISTFNANNNFLSPSHFFTVAVILAVLPILIYKIKKTI”, the protein production entry is recorded as “failed”.

As to “MIIPKMSRHALIGGGTGFIGRNLANHLTKKGYDVTVISRMPGAKRITWHELEKNGIPGSVNAVVNATGQNTLDPTRRWTPGFQQNVWNSRINSSKTLAQAIKSAPQVSSFVNLCGVSHYKPSESKVYTEEDQVQGFDYMSRLCLAWEEAAHTGSEQDCKTTILRCGAVVGHGGGMVQSMWLPFKFGVGGPLGNGNQIMPWIHLHDLCSLIQYIIEKPVPGVVNAVAPEITSNLEFSKAFAKALHRPCIFGVPEFVVQAIFGPERAALVLSGAKVKPQKALSSGFKFQYPSVKEAVTQLTLKG”, the protein production result is “failed”.

“MIIQKIKQFFVGSERTIKAKKNIIASLLVKMLSIIISLLLVPVTLNYLNSYEYGVWLTLSSILVWINYFDIGLGNGLRNRLTEALAIGDYEKGRIYISTTFAILLILMLTIYLLYAFLQHFISWKSILNISTNHAFTDLNYLVLIVFAFFCISFVLKFVGIIYLAKQQPVINDLFGAIANLMSLIVIYILTLVTDGNLTYVAIVFSSAPAVVYLLAYPFTFYYKYPNLAPKISAINFHYAKGLLGLGFQFFIIQVSCLLMFATSNILIAQLCGPEEVTPYNIAYKYFSVITMGFTIVITPFWSAVTDALIKEDFLWIRKGIINMLKVWLFFLLCSLVMLFVASWVYSFWVNMSIPFYLSLLLFVYISIFNWNNMFAYFVNGMGKIRLQLYCSVISGGIFIPLAILLGQLWGLVGIIGSMCFSLLVSAVLMPIQLKLLLAKSATGIWNK”: the protein production entry is reported as “failed”.
